The values below come from patent US20100093086A1 (RESEARCH FOUNDATION OF STATE UNIVERSITY OF NEW YORK, published 2010).

The labels stand for the following.
B1: sPDI-4 (peptide)
peptide: Ac-LTFXHYWXQLTS-NH2
modifications: bridge 4-8 via L3; not fully specified (residues 4, 8); printed as LTFαHYWβQLTS
notes: Stapled peptide
B2: sPDI-9 (peptide)
peptide: Ac-LTFXHYWXRLRS-NH2
modifications: bridge 4-8 via L3; not fully specified (residues 4, 8); printed as LTFαHYWβRLRS
notes: Stapled peptide
B3: sPDI-8 (peptide)
peptide: Ac-LTFXHYWXRLTS-NH2
modifications: bridge 4-8 via L3; not fully specified (residues 4, 8); printed as LTFαHYWβRLTS
notes: Stapled peptide
B4: sPMI-3 (peptide)
peptide: Ac-TSFXQYWNLLXP-NH2
modifications: bridge 4-11 via L3; not fully specified (residues 4, 11); printed as TSFαQYWNLLβP; also: pyrazoline cross-linker L3 between α and β
notes: Stapled peptide
B5: sPMI-2 (peptide)
peptide: Ac-TSFAXYWNXLSP-NH2
modifications: bridge 5-9 via L3; not fully specified (residues 5, 9); printed as TSFAαYWNβLSP; also: pyrazoline cross-linker L3 between α and β
notes: Stapled peptide
B6: sPMI-5 (peptide)
peptide: Ac-TSFXQYW[code β]RLRP-NH2
modifications: bridge 4-8; not fully specified (residue 4, bridges); printed as TSFαQYWβRLRP; also: pyrazoline cross-linker L3 between α and β
notes: Stapled peptide
B7: sPMI-4 (peptide)
peptide: Ac-TSFXRYWXRLSP-NH2
modifications: bridge 4-8 via L3; not fully specified (residues 4, 8); printed as TSFαRYWβRLSP; also: pyrazoline cross-linker L3 between α and β
notes: Stapled peptide

Bridges are numbered along the chain shown (N, C = ends). [ ]: non-standard residue; d: D form. code β = tetrazole-bearing lysine Lys(tetrazole), tetrazole half of pyrazoline cross-linker; L3 = not defined here

For one test, the target named is T1, GST-MDM2 containing full-length human MDM2 (human, UniProt Q00987 1-491).
T1 construct: mature; Expressed in E. coli and purified on glutathione-agarose; also called GST-HDM2; not shown: GST tag
T1 sequence (Q00987 whole entry): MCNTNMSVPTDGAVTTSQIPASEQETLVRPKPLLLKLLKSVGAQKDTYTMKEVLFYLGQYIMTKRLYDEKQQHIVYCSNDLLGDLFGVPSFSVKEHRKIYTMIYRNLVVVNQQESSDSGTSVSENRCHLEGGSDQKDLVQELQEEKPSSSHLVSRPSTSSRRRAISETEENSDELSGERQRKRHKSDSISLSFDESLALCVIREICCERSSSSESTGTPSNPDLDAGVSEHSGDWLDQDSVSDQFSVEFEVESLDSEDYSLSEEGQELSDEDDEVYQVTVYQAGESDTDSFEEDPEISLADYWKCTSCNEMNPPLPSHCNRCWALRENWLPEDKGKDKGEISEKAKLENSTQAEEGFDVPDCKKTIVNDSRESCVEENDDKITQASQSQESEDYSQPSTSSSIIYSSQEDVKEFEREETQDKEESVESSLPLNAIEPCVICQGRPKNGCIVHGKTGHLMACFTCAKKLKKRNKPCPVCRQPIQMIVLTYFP
Nature of the test: competition ELISA: peptide + GST-MDM2 on plated His6-p53.
Regarding B1, the IC50 turned out to be 87 nM.

Take B2: the IC50 was determined as 179 nM.

As for B3, the IC50 was determined as 55 nM.

For B4, the concentration for half-maximal inhibition (IC50) is 23 nM.

Take B5: the IC50 was 1080 nM.

As for B6, the 50% inhibitory concentration (IC50) was 597 nM.

For B7, the IC50 came out at 1230 nM.

A further test concerns the target T2, GST-MDMX containing full-length human MDMX (human, UniProt O15151 1-490).
T2 construct: mature; Expressed in E. coli and purified on glutathione-agarose; not shown: GST tag
T2 sequence (looked up): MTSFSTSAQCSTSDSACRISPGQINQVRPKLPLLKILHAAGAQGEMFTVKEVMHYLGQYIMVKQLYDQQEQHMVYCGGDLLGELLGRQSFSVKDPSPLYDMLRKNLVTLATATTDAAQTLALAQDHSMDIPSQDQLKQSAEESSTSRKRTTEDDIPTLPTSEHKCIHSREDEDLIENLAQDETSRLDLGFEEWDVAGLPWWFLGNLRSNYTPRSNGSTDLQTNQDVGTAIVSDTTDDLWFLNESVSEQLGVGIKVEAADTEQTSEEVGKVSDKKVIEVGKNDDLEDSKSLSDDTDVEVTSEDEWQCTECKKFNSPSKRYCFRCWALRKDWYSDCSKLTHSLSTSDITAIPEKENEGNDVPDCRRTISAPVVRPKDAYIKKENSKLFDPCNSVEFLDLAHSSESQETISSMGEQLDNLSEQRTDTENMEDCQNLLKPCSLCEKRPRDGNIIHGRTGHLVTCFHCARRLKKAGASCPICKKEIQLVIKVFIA
Nature of the test: competition ELISA: peptide + GST-MDMX on plated His6-p53. (ELISA stands for enzyme-linked immunosorbent assay.)
For the molecule B1, the IC50 was found to be 390 nM.

For the molecule B2, the IC50 was found to be 525 nM.

As to B3, the IC50 worked out at 231 nM.

As to B4, the IC50 came out at 1490 nM.

Turning to B5, the IC50 came to 3650 nM.

As to B6, the IC50 came out at 298 nM.

For the molecule B7, the IC50 is 1840 nM.

By IC50 is commonly meant the concentration at which inhibition is half-maximal.
